Substitutions are numbered along the chain they refer to. Names may count otherwise. Where two headings read alike, the source gives them in different places.
How the values were obtained:
[1] = tested on: T1, MP; assay: Initial-rate assay without 3-PGA, ATP and G-1-P both varied (0.01-10 mM and 0.1-25 mM), global fit to a sequential mechanism.; type: biochemical; conditions: read-out: G-1-P Km (absence of 3-PGA)
T1 construct: small subunit of first 198 amino acids of maize BT2 and last 277 of potato tuber small subunit, with wild type SH2

[2] = tested on: T2, MP + SH2-E; assay: as above; type: biochemical; conditions: read-out: G-1-P Km (absence of 3-PGA)
T2 construct: chimeric small subunit MP (maize 198 / potato 277 amino acids) with SH2-E

[3] = tested on: maize endosperm AGPase; assay: 3-PGA activation constant (Ka), Vmin and Vmax; type: biochemical; conditions: change in activity from Vmin to total velocity with 3-PGA; substrates 2 mM
Text: All reactions were developed as above.

[4] = tested on: maize endosperm AGPase; assay: Kinetic values in the absence of 3-PGA; type: biochemical
Text: (1) v=VAB/(KiaKmb+KmbA+KmaB+AB

[5] = tested on: maize endosperm AGPase; assay: Pi inhibition in the presence of 3-PGA; type: biochemical
Text: (§1) (2) v=Vm(S/Ks+(βSI)/(αKiKs))/(1+S/Ks+I/Ki+SI/αKiKs)P-MT
(§2) (3) v=Vm(S/Ks)/(1+S/Ks+I/Ki+SI/αKiKs)L-MT

[6] = tested on: maize endosperm AGPase; assay: Catalytic activity at 37 and 55°C (end point PPi assay); type: biochemical
Experimental: Reactions proceeded for 2, 4, 6, 8, 10, and 15 min and were terminated by boiling. Reaction mixes (1300 μl) were pre-warmed to 37°C or 55°C and the assay was started with the addition of the enzyme. Assay time points (200 μl) were removed at the appropriate time and boiled for 2 min. At 37°C all reactions were linear for 15 min; however, at 55°C rates were linear for a shorter duration. A rate was only calculated if the reactions were linear for at least 10 min.
The amount of PPi produced in the reaction was coupled to a decrease in NADH concentration. Coupling reagent contained 25 mM imidazole pH 7.4, 4 mM MgCl2, 1 mM EDTA, 0.2 mM NADH, 0.725 U aldolase, 0.4 U triose phosphate isomerase, 0.6 U glycerophosphate dehydrogenase, 1 mM fructose 6-phosphate and 0.8 μg purified PPi-PFK per reaction. Blank samples contained complete reaction mixtures minus the enzyme. Change in absorbance between the blank and the reaction was used to calculate the amount of PPi produced. All reactions were linear with time and enzyme concentration.

[7] = tested on: maize endosperm AGPase; assay: Pi inhibition in the absence of 3-PGA; type: biochemical; conditions: for α / β: absence of 3-PGA
Text: as §1, §2

[8] = tested on: E. coli AC70R1-504; conditions: 2015, cited from earlier work
[9] = tested on: maize endosperm AGPase; conditions: cited from earlier work
[10] = molecular target: maize endosperm AGPase; parameters: method as in Georgelis et al., 2009; Boehlein et al., 2015; conditions: ref Georgelis et al., 2009; Boehlein et al., 2015; cited from earlier work
[11] = tested on: maize endosperm AGPase; conditions: ref Boehlein et al., 2015; cited from earlier work
[12] = growth at 37 and 42°C, SH2 variants, ref Boehlein et al.

## O=P(O)(O)O[C@H]1O[C@H](CO)[C@@H](O)[C@H](O)[C@H]1O [G-1-P, glucose-1-phosphate]
[1]
  Km: 11.9 ± 3 mM
[2]
  Km: 0.09 ± 0.008 mM

B1: wt: wild type maize endosperm AGPase: SH2 large subunit with BT2 small subunit, expressed in E. coli (protein, UniProt P55241 46-516; P55241 46-516, looked up)
Glucose-1-phosphate … 1: FGGRVAATTQCILTSDACPETLHSQTQSSRKNYADANRVSAIILGGGTGSQLFPLTSTRATPAVPVGGCYRLIDIPMSNCFNSGINKIFVMSQFNSTSLNRHIHRTYLEGGINFADGSVQVLAATQMPEEPAGWFQGTADSIRKFIWVLEDYYSHKSIDNIVILSGDQLYRMNYMELVQKHVEDDADITISCAPVDESRASKNGLVKIDHTGRVLQFFEKPKGADLNSMRVETNFLSYAIDDAQKYPYLASMGIYVFKKDALLDLLKSKYTQLHDFGSEILPRAVLDHSVQACIFTGYWEDVGTIKSFFDANLALTEQPSKFDFYDPKTPFFTAPRCLPPTQLDKCKMKYAFISDGCLLRECNIEHSVIGVCSRVSSGCELKDSVMMGADTYETEEEASKLLLAGKVPVGIGRNTKIRNCIIDMNARIGKNVVITNSKGIQEADHPEEGYYIRSGIVVILKNATINDGSVI
Glucose-1-phosphate … 2: B1 Glucose-1-phosphate … 1
modifications: expressed in E. coli
[3]
  Vmax: 6352 ± 540
[4]; Km without 3PGA versus with 3PGA
  reduction of the Km values of both substrates by binding of 3PGA: over 50 fold
[4]; absence of 3-PGA, read-out: ATP Km
  Km: ~4 mM
[4]; read-out: G-1-P Km (absence of 3-PGA)
  Km: 3 mM
[5]; varied substrate ATP
  α: 4.61 ± 0.07
  β: 0.83 ± 0.037
[5]; varied substrate G-1-P
  α: 0.90 ± 0.012
  β: 0.52 ± 0.023
[6]; 37°C, 5 mM ATP, 2 mM G-1-P, 2.5 mM 3-PGA, purified enzyme from E. coli
  Activity at 37°C: 5415 ± 268
[6]; 55°C
  activity at 55°C (in words): not active
[7]
  Ki for Pi higher in the absence of 3PGA compared to the presence of 3PGA: 5–10 fold
[7]; varied substrate ATP
  α: 0.063 ± 0.034
  β: 0.52 ± 0.17
[7]; varied substrate G-1-P
  α: 0.095 ± 0.065
  β: 0.92 ± 0.31

B2: P372A: SH2 large subunit variant P372A (protein, UniProt P55241 46-516, looked up, variant P372A)
Glucose-1-phosphate …: B1 Glucose-1-phosphate … 1 with P327A
[8]; ref Georgelis et al., 2009, Boehlein et al.
  glycogen staining (in words): reduced glycogen staining
[9]; ref Georgelis et al., 2009, Boehlein et al., 2015
  effect on 3-PGA Ka (in words): Increased 3-PGA Ka
[10]
  effect on Ki for phosphate (in words): decreased Ki for phosphate

B3: K445R: SH2 large subunit variant K445R (protein, UniProt P55241 46-516, looked up, variant K445R)
Glucose-1-phosphate …: B1 Glucose-1-phosphate … 1 with K400R
[8]; [12]
  glycogen staining (in words): Stained darker at 37 and 42 °C

B4: E438Q: SH2 large subunit variant E438Q (protein, UniProt P55241 46-516, looked up, variant E438Q)
Glucose-1-phosphate …: B1 Glucose-1-phosphate … 1 with E393Q
[9]; ref Georgelis et al., 2009
  effect on 3-PGA Ka (in words): Did not alter 3-PGA Ka

B5: S444A: SH2 large subunit variant S444A (protein, UniProt P55241 46-516, looked up, variant S444A)
Glucose-1-phosphate …: B1 Glucose-1-phosphate … 1 with S399A
[9]; ref Boehlein et al., 2014
  effect on 3-PGA Ka (in words): Did not alter 3-PGA Ka

B6: S444R: SH2 large subunit variant S444R (protein, UniProt P55241 46-516, looked up, variant S444R)
Glucose-1-phosphate …: B1 Glucose-1-phosphate … 1 with S399R
[8]; [12]
  glycogen staining (in words): Stained darker at 37 and 42°
[11]
  activity at 37° (in words): had higher activity at 37°
